Laboratory results: US20040235717A1, “Suppression of androgen receptor transactivation through new pathways to ar and ar coactivators and repressors” (priority 2001, published 2004)
Each block holds one molecule with its values, some of them ahead of it.

Legend:
[1] = test system: AR transactivation; test: AR transactivation, MMTV-luc / (ARE)4-luc luciferase reporter assay; format: cell-based; conditions: LNCaP
[2] = target: T1, AR-Smad3 interaction (Homo sapiens, UniProt P10275); test: GST-Smad3 pull-down of AR with added Smad4; format: binding; conditions: GST-Smad3, [35S]-AR, purified Smad4 added
T1 construct: in vitro transcribed/translated [^35S]-labeled full-length AR and GST-Smad3 (2 μg); made in house; host or cells: AR: TNT-coupled reticulocyte lysate (Promega); GST-Smad3: E. coli BL21 (DE3) pLysS
T1 sequence (P10275 1-920): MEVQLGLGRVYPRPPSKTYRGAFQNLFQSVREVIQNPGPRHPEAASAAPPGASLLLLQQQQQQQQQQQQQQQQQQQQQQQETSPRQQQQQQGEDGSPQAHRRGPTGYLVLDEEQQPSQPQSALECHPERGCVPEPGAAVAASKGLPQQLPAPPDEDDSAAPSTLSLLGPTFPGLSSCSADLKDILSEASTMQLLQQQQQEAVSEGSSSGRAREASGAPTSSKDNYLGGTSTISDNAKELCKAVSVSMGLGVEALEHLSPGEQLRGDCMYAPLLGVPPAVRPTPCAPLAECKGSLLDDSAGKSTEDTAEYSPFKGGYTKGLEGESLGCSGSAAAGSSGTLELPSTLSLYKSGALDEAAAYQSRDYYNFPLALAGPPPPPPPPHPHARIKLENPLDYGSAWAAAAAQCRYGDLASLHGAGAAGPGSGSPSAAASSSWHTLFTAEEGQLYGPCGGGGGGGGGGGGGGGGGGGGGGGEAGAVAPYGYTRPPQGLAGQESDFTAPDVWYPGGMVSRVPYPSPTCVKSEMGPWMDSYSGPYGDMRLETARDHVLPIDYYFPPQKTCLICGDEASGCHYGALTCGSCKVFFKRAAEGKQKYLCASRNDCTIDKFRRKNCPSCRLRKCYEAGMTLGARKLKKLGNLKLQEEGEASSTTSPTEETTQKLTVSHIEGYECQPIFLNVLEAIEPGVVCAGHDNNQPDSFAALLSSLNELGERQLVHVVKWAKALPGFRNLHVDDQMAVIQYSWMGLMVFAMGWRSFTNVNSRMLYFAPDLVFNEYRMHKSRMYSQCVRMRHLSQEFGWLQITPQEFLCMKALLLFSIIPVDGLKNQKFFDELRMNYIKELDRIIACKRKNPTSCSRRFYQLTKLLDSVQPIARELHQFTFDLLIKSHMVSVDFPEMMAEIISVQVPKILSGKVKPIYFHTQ
Protocol: 34. […] Complex bound to GST columns was subjected to SDS-PAGE and autoradiography. […] (C) The indicated amounts of purified Smad4 proteins were added to fixed volumes of in vitro transcribed/translated [^35S]-labeled full-length AR and GST-Smad3 (2 μg) to test for interaction. Bands were detected using a phosphoimager. A representative blot of three independent experiments is shown.
335. Fusion proteins of GST-Smad3 and GST-AR, and GST protein alone were obtained by transforming expressing plasmids into BL21 (DE3) pLysS strain competent cells followed with 1 mM IPTG induction. GST-fusion proteins then were purified by Glutathione-Sepharose™ 4B (Pharmacia). The wtAR and deletion mutant AR (mtAR) proteins labeled with [^35S] were generated in vitro using the TNT-coupled reticulocyte lysate system (Promega). […] The bound proteins were separated on an 8% SDS-polyacrylamide gel and visualized by using autoradiography.

[3] = test system: PSA mRNA expression; test: PSA mRNA expression in LNCaP cells, Northern blot; format: cell-based; conditions: presence of androgen
[4] = test system: AR transactivation; test: AR transactivation with Smad3/Smad4, CAT reporters in PC3-AR2, PC-3 and LNCaP cells; format: cell-based, human; conditions: PC3-AR2, MMTV-CAT
Protocol: 32. […] LNCaP cell were transfected with Smad3 or Smad4 expression vector instead of PC-3(AR)2 cells in experiments otherwise identical with those in A (B), PC-3(AR)2 cells stably transfected with AR were over-expressed with the indicated amounts of Smad3 or Smad4 or SRC-1. 3 μg of MMTV-CAT was used as a reporter plasmid in all experiments. All values represent the averages±SD of four independent experiments. […] PSA expression level was determined by Northern blotting. The probe was obtained from exon 1 of the PSA gene and labeled with [α-^32P] dCTP. A β-actin probe was used as a control for equivalent mRNA loading. (C, Table 1) The RNA samples from (A) were reverse transcribed to cDNAs and all of the samples were subjected to real-time CR using an ABI Prism 7700 Sequence Detection System (Perkin-Elmer Applied bio systems). PCR was performed using the SYBR Green PCR Core Reagents kit (Perkin-Elmer Applied Bio systems). PSA and β-actin forward, reverse primers concentrations were 2.5 μM. To reduce variability between replicates, PCR premixes which contained all reagents except for total RNA were prepared and aliquoted into 1.5 ml microfuge tubes. Specific PCR amplification products were detected by the fluorescent double-stranded DNA-binding dye SYBR Green core reagent kit. Experiments were performed with triplicates for each data point.
37. […] (A) PC3-AR2, SW480·C7, and PC-3 cells were transiently co-transfected with either MMTV-CAT, PSA-CAT, 5XARE-CAT, or (TAT)2-CAT (3 μg), in the presence of AR, Smad3, Smad4 or Smad3/Smad4 as indicated. Each CAT activity is presented relative to the transactivation observed in the absence of Smad3. All values represent the mean±SD of three independent experiments.
333. Human prostate cancer DU145 cells and PC-3 cells were maintained in Dulbecco's Minimum Essential Medium containing penicillin (25 U/ml), streptomycin (25 μg/ml), and 5% fetal calf serum. Transfections were performed using the calcium phosphate precipitation method and cells were harvested after 24 h for the chloramphenicol acetyltransferase (CAT) assay, as described previously (Kang, et al. (1999) J. Biol. Chem. 274, 8570-8576). The CAT activity was visualized and quantitated by STORM 840 (Molecular Dynamics). At least three independent experiments were carried out in each case. The SW480·C7 cells and PC-3(AR)2 cells are the gifts from Dr. Eric J. Stanbridge and Dr. T. J. Brown

[5] = test system: AR transactivation; test: AR transactivation, (ARE)4-luc in CWR22 cells; format: cell-based, human
Protocol: (§1) 31. […] (D) The LNCaP cells were transfected with plasmids as indicated for 16 h, and the medium was changed to 0.1% CDS media for 2 days. The cell apoptosis was determined by TUNEL assay (E) The LNCaP cells were transfected with plasmids as indicated for 16 h, harvested, and the cell extracts were subjected to SDS-PAGE. The Akt activity was determined by Western blotting using phospho(S473)-Akt antibody. (F) The U87MG cells were transfected with plasmids as indicated for 16 h, and the medium was changed 0.1% CDS media for 2 days. The cell apoptosis was determined by TUNEL assay. Data for luciferase activity and apoptosis are means±s.d. from three independent experiments.
312. […] The cells were lysed and the luciferase activity was detected by the dual luciferase assay according to standard procedures.

[6] = test system: Akt; test: Akt activity in LNCaP cells, Western blot with phospho-Akt (Ser473) antibody; format: cell-based; conditions: LNCaP
Protocol: 18. […] (A) Akt suppressed androgen/AR-induced p21 promoter activity. […] (B) Androgen/AR-induced PC-3(AR)6 apoptosis and p21 protein expression was blocked by Akt PC-3(AR)6 was transfected with pCDNA3, cAkt, or dAkt, as indicated, for 16 h. […] (C) AR-induced p21 protein expression was enhanced by dAkt in LNCaP cells. […] LNCaP stable transfection with dAkt was confirmed by western blot assay using phospho-Akt (Ser473) antibody. […] TPA was then added for another 24 h and cell apoptosis was determined by TUNEL assay. […] IGF-1 was added for another 30 min, followed by 10 nM TPA treatment for another 24 h. The apoptosis was determined by TUNEL assay. The data are means±s.d. from three independent experiments.
as §1

[7] = test system: AR protein levels; test: AR protein (Western blot) and AR mRNA (Northern blot) levels; format: cell-based; conditions: LNCaP; 10 nM DHT
[8] = test system: LNCaP cells; test: PTEN-induced apoptosis in LNCaP cells, TUNEL assay; format: cell-based
[9] = test system: U87MG cells; test: PTEN-induced apoptosis in AR-negative U87MG cells, TUNEL assay; format: cell-based
Protocol: as §1
311. For the apoptosis assay, the cells were transfected with plasmids for 24 h and grown in 0.1% charcol-stripped serum (CDS) media. The apoptosis was determined 2 days after transfection using the TUNEL assay according to the standard procedures (Oncogene). At least 200 cells were scored for each sample and data are means±s.d. from three independent experiments.

[10] = test system: interaction between AR and PTEN; test: Co-immunoprecipitation of AR and PTEN in CWR22 cells; format: cell-based, human
Protocol: 28. […] (C) The cell lysates from the CWR22 were immunoprecipitated by anti-PTEN antibody, followed by Western blot analysis. […] The cells were harvested for co-immunoprecipitation. Lane 1: 10% input; Lane 2: IP by non-immune IgG; Lane 3: IP by anti-AR antibody; Lane 4: The PTEN protein was depleted from the cell lysates by anti-PTEN antibody before IP by anti-AR antibody; Lane 5: IP by anti-PTEN antibody. (E) CWR22 cells were transfected with vector or Akf for 48 h and the cells were harvested for immunoprecipitation assay.
314. The immunoprecipitation and Western blotting were performed as previously described (Qiu et al. (1998) Nature 393, 83-5). The cell extracts (1 mg) were immunoprecipitated with the indicated antibody. The immunocomplexes were subjected to 8% SDS-PAGE and immunoblotted with the indicated antibody.

B1: PTEN-#1: PTEN fragment (aa, 1-107) that does not interact with AR (protein)
chain: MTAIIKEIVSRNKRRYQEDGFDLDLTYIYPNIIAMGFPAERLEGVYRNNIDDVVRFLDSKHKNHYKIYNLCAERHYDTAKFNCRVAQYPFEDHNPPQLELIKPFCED
modifications: left off: a dimerising Fc or GST
Effect on PTEN functions (AR degradation, AR transactivation) [1]: only marginal effect

B2: Smad4: candidate tumor suppressor, shared component of Smad signaling (protein)
chain: MDNMSITNTPTSNDACLSIVHSLMCHRQGGESETFAKRAIESLVKKLKEKKDELDSLITAITTNGAHPSKCVTIQRTLDGRLQVAGRKGFPHVIYARLWRWPDLHKNELKHVKYCQYAFDLKCDSVCVNPYHYERVVSPGIDLSGLTLQSNAPSSMMVKDEYVHDFEGQPSLSTEGHSIQTIQHPPSNRASTETYSTPALLAPSESNATSTANFPNIPVASTSQPASILGGSHSEGLLQIASGPQPGQQQNGFTGQPATYHHNSTTTWTGSRTAPYTPNLPHHQNGHLQHHPPMPPHPGHYWPVHNELAFQPPISNHPAPEYWCSIAYFEMDVQVGETFKVPSSCPIVTVDGYVDPSGGDRFCLGQLSNVHRTEAIERARLHIGKGVQLECKGEGDVWVRCLSDHAVFVQSYYLDREAGRAPGDAVHKIYPSAYIKVFDLRQCHRQMQQQAATAQAAAAAQAAAVAGNIPGPGSVGGIAPAISLSAAAGIGVDDLRRLCILRMSFVKGWGPDYPRQSIKETPCWIEIHLHRALQLLDEVLHTMPIADPQPLD
AR-Smad3 interaction [2]: decrease this AR-Smad3 interaction in a dose-dependent manner
Effect on androgen-induced PSA mRNA expression [3]: slight suppression of PSA mRNA expression
Effect on Smad3-enhanced AR transactivation [4]: significantly repressed
Effect on androgen-activated AR transactivation ([4]; 10^−8 M DHT): slightly suppressed

Effect on PTEN suppression of AR transactivation [1]: dramatically reduce
B3: ARf: the interaction domain within AR (aa; 483-651) (protein)
chain: YTRPPQGLAGQESDFTAPDVWYPGGMVSRVPYPSPTCVKSEMGPWMDSYSGPYGDMRLETARDHVLPIDYYFPPQKTCLICGDEASGCHYGALTCGSCKVFFKRAAEGKQKYLCASRNDCTIDKFRRKNCPSCRLRKCYEAGMTLGARKLKKLGNLKLQEEGEASSTTS
modifications: left off: small tags and cut ends
Effect on PTEN suppression of AR transactivation [5]: significantly reduce PTEN suppressive effect on AR transactivation
Effect on PTEN-mediated inhibition of Akt activity [6]: little influence
Effect on PTEN-mediated promotion of AR degradation [7]: dramatically reduce
Effect on PTEN-induced apoptosis [8]: markedly reduced PTEN-induced apoptosis
Effect on PTEN-induced apoptosis [9]: only marginal effects
Interaction between AR and PTEN [10]: disrupted the interaction between AR and PTEN
